The results in this text go back to the nanobody polyreactivity screen of Harvey et al. (2022).

The nature of this series: yeast display, Sf9 membrane polyspecificity reagent, FACS + sequencing; frameworks hold sequencing errors. In a few lines: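 Galactose-induced (36–48 hours) yeast carrying a synthetic nanobody display library were exposed to 10% biotinylated, detergent-solubilized Sf9 membrane reagent at 4 °C for 1 hour. FACS followed streptavidin microbead enrichment, using low and high (top ~1%) gates for expression (anti-HA) and reagent binding (streptavidin). Colony PCR, MiSeq 2 × 250 sequencing and CDR-length filtering followed. Labels for polyreactivity reflect the gate of origin.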
Regarding “QVQLVESGGGLVQAGGSLRLSCAASGIIFTYYAMGWYRQAPGKERELVASISSSGTSTYYADSVKGRFTISRDYAKNTVYLQMNSLKPEDTAVYYCAADWTGSNGVDYWGQGTQVTVSS”, the “polyreactivity (PSR sort gate)” value is recorded as “low polyreactivity”.

For “QVQLVESGGGLVQAGGSLRLSCAASGIIFVGYAMGWYRQAPGKERELVAAISSGGSTNYADSVKGRFTISRDNAKNTVYLQMNSLKPEDTAVYYCATDSGDGEGDYWGQGTQVTVSS”, the “polyreactivity (PSR sort gate)” value was “low polyreactivity”. Under “QVQLVESGGGLVQAGGSLRLSCAASGIIFVKYTMGWYRQAPGKERELVAAISRSGGSTYYADSVKGRFTISRDNAKNTVYLQMNSLKPEDTAVYYCNAVSRKVYPGPMDYWGQGTQVTVSS” stands “high polyreactivity”. Regarding “QVQLVESGGGLVQAGGSLRLSCAASGIIFVKYTMGWYRQAPGKERELVAAITRGGSTYYADSVKGRFTISRDNAKNTVYLQMNSLKPEDTAVYYCAAAWYQYFVPGYRGYTYYYWGQGTQVTVSS”, the “polyreactivity (PSR sort gate)” value was “high polyreactivity”.

Take “QVQLVESGGGLVQAGGSLRLSCAASGIIFVSYMGWYRQAPGKERELVAAIRWSGGRTYYADSVKGRFTISRDNAKNTVYLQMNSLKPEDTAVYFCAADALRKPKIALYDYWGQGTQVTVSS”: the “polyreactivity (PSR sort gate)” value is listed as “high polyreactivity”. The result for “QVQLVESGGGLVQAGGSLRLSCAASGIIFVYYVMGWYRQAPGKERELVASIDGSGGSTNYADSVKGRFTISRDNAKNTVYLQMNSLKPEDTAVYYCNADNILYWSTLDYWGQGTQVTVSS” reads “low polyreactivity”. Under “QVQLVESGGGLVQAGGSLRLSCAASGIIFWFYAMGWNRQAPGKERELVAAISGDGDSTYYADSVKGRFTISRDNAKNTVYLQMNSLKPEDTAVYYCAAEWDPVFATDEDDYWGQGTQVTVSS” stands “low polyreactivity”. “QVQLVESGGGLVQAGGSLRLSCAASGIIFWPYAMGWYRQAPGKERELVASISTGGSTHYADSVKGRFTISRDNAKNTVYLQLNSLKPEDTAVYYCNADVGPTYSYDYWGQGTQVTVSS”: the “polyreactivity (PSR sort gate)” value is listed as “low polyreactivity”. The result for “QVQLVESGGGLVQAGGSLRLSCAASGIIFWRYAMGWYRQAPGKERELVASISSSGGRTYYADSVKGRFTISRDNAKNTVYLQMNSLTPEDTAVYYCAARGPYGYDLLYYWGQGTQVTVSS” reads “high polyreactivity”.

“QVQLVESGGGLVQAGGSLRLSCAASGIIFWSYVMGWYRQAPGKERELVAAITFSGGSTYYADSVKGRFTISRDNAKNTVYLQMNSLKPEDTAVYYCAARYKLVRRYDYWGQGTQVTVSS”: the “polyreactivity (PSR sort gate)” value was “low polyreactivity”. The result for “QVQLVESGGGLVQAGGSLRLSCAASGIIFWWYAMGWSRQAPGKERELVAAISGTGGSTYYADSVKGRFTISRDNAKNTVYLQMNSLKPEDTAVYYCAKRASPFWRGYDSWGQGTQVTVSS” reads “low polyreactivity”. On to “QVQLVESGGGLVQAGGSLRLSCAASGIIFWWYTRGWYRQAPGKERELVAAISRGGNTNYADSVKGRFTISRDNAKNTVYLQMNSLKPEDTAGYYCAADRHYRFWQDDYWGQGTQVTVSS”, for which the “polyreactivity (PSR sort gate)” value is listed as “high polyreactivity”.

In the case of “QVQLVESGGGLVQAGGSLRLSCAASGIIFWYNAMGWYRQAPGKERELVASISTGGRTYYADSVKGRFTISRDNAKNTVYLQMNSLKPEDTAVYYCAAASRVGFLYCYWGQGTQVTVSS”, the “polyreactivity (PSR sort gate)” value was “low polyreactivity”. With “QVQLVESGGGLVQAGGSLRLSCAASGIIFWYNTMGWYRQAPGKERELVAAITYGGGSTYYADSVKGRFTISRDNAKNSVYLQMNSLKPEDTAVYYCAVRNWHLIKYLHGYSRYGYWGQGTQVTVSS”, the “polyreactivity (PSR sort gate)” value is reported as “low polyreactivity”.

For “QVQLVESGGGLVQAGGSLRLSCAASGIIFWYYAMGWYRQAPGKERELVAAINSGGSTNYADSVKGRFTISRDNAKNTVYLQMNSLKQEDTAVYYCAARYRWPIPGTQYEYWGQGTQVTVSS”, the “polyreactivity (PSR sort gate)” value is reported as “low polyreactivity”. The result for “QVQLVESGGGLVQAGGSLRLSCAASGIIFWYYAMGWYRQAPGKERELVAAISSGGGTNYADSVKGRFTISRDNAKNTVSLQMNSLKPEDTAVYYCNADDNPVWEYDYWGQGTQVTVSS” reads “low polyreactivity”; that for “QVQLVESGGGLVQAGGSLRLSCAASGIIFYDNALGWYRQAPGKERELVAALDSDGSTDYADSVKGRFTISRDNAKNTVYLQMNSLKPEDTAVYYCAADLVWYASGRYIYRGYDYWGQGTQVTVSS”, “low polyreactivity”; that for “QVQLVESGGGLVQAGGSLRLSCAASGIIFYDYAMGWYRQAPGKERELVAAISRSGGSTYYADSVKGRFTISRDNAKNTVYLQMNSLKPEDTAVYYCAKDRDFSSPPTESGFDYWGQGTQVTVSS”, “low polyreactivity”.

Take “QVQLVESGGGLVQAGGSLRLSCAASGIIFYDYAMGWYRQAPGKERELVAAITSNGDNTYYADSVKGRFTISRDNAKNTVYLQMNSLKPEDTAVYYCDVDGSFAADFDNYLEEYGYWGQGTQVTVSS”: the “polyreactivity (PSR sort gate)” value is recorded as “low polyreactivity”. On to “QVQLVESGGGLVQAGGSLRLSCAASGIIFYDYAMGWYRQAPGKERELVAAITSSGGSTYYADSVKGRFTISRDNAKNTVYLQMNSLKPEDTAVYYCADATRGSGRRYDYWGQGTQVTVSS”, for which the “polyreactivity (PSR sort gate)” value is reported as “high polyreactivity”. Under “QVQLVESGGGLVQAGGSLRLSCAASGIIFYFYAMGWYRQAPGKERELVADITSGDRTNYADSVKGRFTISRDNAKNTVYLQMNSLKPEDTAVYYCAAGTSKPTPIYGYWGQGTQVTVSS” stands “low polyreactivity”; under “QVQLVESGGGLVQAGGSLRLSCAASGIIFYGYVMGWYRQAPGKERELVATITSSGGSTYYADSVKGRFTISRDNAKNTVYLQMNSLKPEDTAVYYCAAYYYYGAWVRHDYWGQGTQVTVSS”, “low polyreactivity”; under “QVQLVESGGGLVQAGGSLRLSCAASGIIFYHNAMGWYRKAPGKERELVATIRSSGDGTYYADSVKGRFTISRDNAKNTVYLQMNSLKPEDTAVYYCAAYWAHSYSYSVSRRYYYWGQGTQVTVSS”, “low polyreactivity”. Under “QVQLVESGGGLVQAGGSLRLSCAASGIIFYHYAMGWYRPAPGKEREFVAAITWDGGNTSYADSVKGRFTISRDYAKNTFYLQMNSLIPEDTAVYYCNTDRGPVKVSPLYESWGQGTQVTVSS” stands “low polyreactivity”; under “QVQLVESGGGLVQAGGSLRLSCAASGIIFYHYAMGWYRQAPGKEREFVAAITWDGGNTYYADSVKGRFTISRDNAKNTVYLQMNSLKPEDTAVYYCNTDRGPVKVSPLYESWGQGTQVTVSS”, “low polyreactivity”; under “QVQLVESGGGLVQAGGSLRLSCAASGIIFYIYTMAWYRQAPGKERELVAAINRSGSRTYYADSVKGRFTISRDNAKNTVYLQMNSLKPEDTAVYYCAAGTGSRDDYWGQGTQVTVSS”, “high polyreactivity”. Take “QVQLVESGGGLVQAGGSLRLSCAASGIIFYLYAMGWYRQARGKEWELVAAISRRGVSTYYADSLMGRFTISRDNAKNTVYLQMNSLKPEDTAVYYCAAAGFGYTGEEYWGQGTQVTVSS”: the “polyreactivity (PSR sort gate)” value is reported as “high polyreactivity”.

Take “QVQLVESGGGLVQAGGSLRLSCAASGIIFYPNAMGWYRQAPGKERELVAAISWRSGSTYYADSVKGRFTISRDNAKNTVYLQMNSLKPEDTAVYYCAADRRRSYIWRYDYWGQGTQVTVSS”: the “polyreactivity (PSR sort gate)” value is recorded as “low polyreactivity”. Under “QVQLVESGGGLVQAGGSLRLSCAASGIIFYPYAMGWYRQAPGKERELVAGISWSGGRTYYADSVKGRFTISRDNAKNTVYLQMNSLKPEDTAVYYCAARYRQRAYDYWGQGTQVTVSS” stands “high polyreactivity”. On to “QVQLVESGGGLVQAGGSLRLSCAASGIIFYPYAMGWYRQEPGKERYLVASISSGGDTNYADSVKGRFTISRDNAKNTVYLQMNSLKPEDTAVYYCAARVRVQYWWEYYYWGQGTQVTVSS”, for which the “polyreactivity (PSR sort gate)” value was “high polyreactivity”.

As to “QVQLVESGGGLVQAGGSLRLSCAASGIIFYQYAMGWYRQAHGKERELVAAISSRGGSTYYADSVKGRFTISLDNAKNTVYLLMNSLKPEDTAVYYCAAGSTGSTDGYWGQGTQVTVSS”, the “polyreactivity (PSR sort gate)” value is “high polyreactivity”.

On to “QVQLVESGGGLVQAGGSLRLSCAASGIIFYRYAMGWYRQAPGKERELVAAINTSGGRTYYADSVKGRFTISRDNAKNTVYLQMNSLKPEDTAVYYCAAYYSPVGFQYDYWGQGTQVTVSS”, for which the “polyreactivity (PSR sort gate)” value is recorded as “high polyreactivity”.

As for “QVQLVESGGGLVQAGGSLRLSCAASGIIFYSNAMGWARQAPGKETELVAGISKSGGSTYYADSVKGRFTISRDNAQNTVYLQMHSLKPEDTAVYYCAVRGGGRYRSWGYDYWGQGTQVTVSS”, the “polyreactivity (PSR sort gate)” value is “high polyreactivity”.

Turning to “QVQLVESGGGLVQAGGSLRLSCAASGIIFYSYAMGWYRQAPGKERELVAAISRRGTSTFYADSVKGRFTISRDNAKNTVYLQMNSLKPEDTAVSYCNARYKYYRGSGMDSWGQGTQVTVSS”, the “polyreactivity (PSR sort gate)” value was “high polyreactivity”. As for “QVQLVESGGGLVQAGGSLRLSCAASGIIFYSYTMGWYRQAPGKERELVAAISRNGGGTYYADSEKGRFTISRDNAKNTVYLQMNSLNPEETAVYYCAAEVDQWYYRGYDYWGQGTQVTVSS”, the “polyreactivity (PSR sort gate)” value is listed as “high polyreactivity”. Under “QVQLVESGGGLVQAGGSLRLSCAASGIIFYVNAMGWYRQAPGKERELVAAITFGGDSTYYADSVKGRFTISRDNAKNTVYLQMNSLKPEDTAVYYCAADYVALYYWYDYWGQGTQVTVSS” stands “low polyreactivity”; under “QVQLVESGGGLVQAGGSLRLSCAASGIIFYWYAMGWYRQSPGKERELVATITSTGGSTNYADSVKGRFTISRDNAKNTVYLQMNSLKPEDTAVYYCNADRYGIYYYSRLPFDYWGQGTQVTVSS”, “low polyreactivity”; under “QVQLVESGGGLVQAGGSLRLSCAASGIIFYYYAMGWYRPAPGKERELVAAITSSGVRTYYADSVKGRFTLSRDTAKNTVYLQMNSLKPEDTAVYYCAASVSWPRVSQRARYGYYYWGQGTQVTVSS”, “high polyreactivity”.

Take “QVQLVESGGGLVQAGGSLRLSCAASGIIFYYYAMGWYRQAPGKERELVAAISWSGDGTYYADSVKGRFTISRDKAKNTVYLQMNSLKPEDTAVYYCAALNDGFTGYDYLDEYTDYGYWGQGTQVTVSS”: the “polyreactivity (PSR sort gate)” value is reported as “low polyreactivity”. “QVQLVESGGGLVQAGGSLRLSCAASGIIFYYYVMGWYRQAPGKERELVAAISRSGGRTRYADSVKGRFTISRDNAKNTVYLQMNSLKPEDTAVYYCAAVGSVNYDADFDYWGQGTQVTVSS”: the “polyreactivity (PSR sort gate)” value was “high polyreactivity”.
